In patent US20050262592:

System: duckweed-produced human microplasminogen
Sequence (chain, as listed by the source): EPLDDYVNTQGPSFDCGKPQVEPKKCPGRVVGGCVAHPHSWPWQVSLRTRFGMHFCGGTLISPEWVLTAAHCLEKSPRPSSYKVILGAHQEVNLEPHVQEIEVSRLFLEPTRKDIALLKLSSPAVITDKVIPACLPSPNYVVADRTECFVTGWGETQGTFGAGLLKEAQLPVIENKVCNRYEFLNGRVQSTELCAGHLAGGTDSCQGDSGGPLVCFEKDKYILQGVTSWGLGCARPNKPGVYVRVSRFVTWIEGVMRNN

For urokinase, the “Western blot: production of the B chain of plasmin” value was “Western blot analysis confirmed the production of the B chain of plasmin following activation of duckweed-produced microplasminogen with either urokinase or tPA”.
